Laboratory results from PMC4914081.

How the values were obtained:
Mmp150C 4KE = biological target: T1, Mmp150C 4KE (mouse, UniProt Q9QWF0 706-827, K768E;R770E;K772E;R773E); assay: EMSA
T1 sequence: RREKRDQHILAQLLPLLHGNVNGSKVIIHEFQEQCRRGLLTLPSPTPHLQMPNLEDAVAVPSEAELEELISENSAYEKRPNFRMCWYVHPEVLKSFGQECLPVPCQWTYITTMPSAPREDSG

Mmp150C = biological target: T2, Mmp150C (mouse, UniProt Q9QWF0 706-827); assay: EMSA
T2 sequence: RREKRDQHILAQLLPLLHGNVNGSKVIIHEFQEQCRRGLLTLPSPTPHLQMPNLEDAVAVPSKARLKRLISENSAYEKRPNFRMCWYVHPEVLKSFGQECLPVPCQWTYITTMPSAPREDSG

Hsp150C = Hsp150C (human, UniProt Q13111 727-854); assay: EMSA
Cac1C K577E = Cac1C K577E (budding yeast, UniProt Q12495 520-606, K577E); assay: EMSA
Cac1C K583E = Cac1C K583E (budding yeast, UniProt Q12495 520-606, K583E); assay: EMSA
Cac1C K553E = Cac1C K553E (budding yeast, UniProt Q12495 520-606, K553E); assay: EMSA
Cac1C (C-terminal WHD) [1] = biological target: T3, Cac1C (C-terminal WHD) (budding yeast, UniProt Q12495 520-606); assay: EMSA
GST-Cac2 = GST-Cac2 (budding yeast, UniProt Q04199 1-438); assay: pull-down
[2] = biological target: Cac1 (in CAF-1);GST-Cac2;Cac3 (budding yeast (Saccharomyces …, UniProt Q12495;Q04199;P13712 91-606;1-438;1-422, ||)); assay: pull-down
Cac1C (C-terminal WHD) [3] = biological target: T3, Cac1C (C-terminal WHD); assay: pull-down
Cac1C (C-terminal WHD) [4] = biological target: T3, Cac1C (C-terminal WHD); assay: EMSA; remark: listed apart in the source
Cac1C (C-terminal WHD) [5] = biological target: T3, Cac1C (C-terminal WHD); assay: EMSA; remark: listed apart in the source
Cac1C (C-terminal WHD) [6] = biological target: T3, Cac1C (C-terminal WHD); assay: EMSA; remark: listed apart in the source

T3 sequence (Q12495 520-606): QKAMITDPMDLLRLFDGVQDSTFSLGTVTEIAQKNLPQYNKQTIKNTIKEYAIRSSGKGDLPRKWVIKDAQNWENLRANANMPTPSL
Sequence of GST-Cac2 (Q04199 1-438): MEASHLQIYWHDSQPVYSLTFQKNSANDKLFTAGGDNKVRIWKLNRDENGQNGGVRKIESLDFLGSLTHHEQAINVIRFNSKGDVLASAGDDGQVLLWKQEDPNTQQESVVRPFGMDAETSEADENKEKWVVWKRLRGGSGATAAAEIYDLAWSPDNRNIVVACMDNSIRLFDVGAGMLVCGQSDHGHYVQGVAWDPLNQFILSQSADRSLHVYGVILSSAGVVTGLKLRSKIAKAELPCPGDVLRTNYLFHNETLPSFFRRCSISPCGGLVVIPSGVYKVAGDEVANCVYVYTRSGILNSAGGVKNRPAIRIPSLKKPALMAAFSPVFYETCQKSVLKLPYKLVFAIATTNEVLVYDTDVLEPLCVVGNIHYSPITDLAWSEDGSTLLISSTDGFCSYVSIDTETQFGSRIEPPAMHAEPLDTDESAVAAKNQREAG
Sequence of Hsp150C (Q13111 727-854): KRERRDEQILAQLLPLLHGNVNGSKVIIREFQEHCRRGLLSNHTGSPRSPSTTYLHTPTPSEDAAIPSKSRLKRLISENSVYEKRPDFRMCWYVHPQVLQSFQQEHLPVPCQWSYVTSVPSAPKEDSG
Sequence of Cac1C K583E (Q12495 520-606 K583E): as the sequence (Q12495 520-606) above, with K64E counted along it
Sequence of Cac1C K577E (Q12495 520-606 K577E): as the sequence (Q12495 520-606) above, with K58E counted along it
Sequence of Cac1 (in CAF-1);GST-Cac2;Cac3 (budding yeast (Q12495 91-606, chain 1 of 3): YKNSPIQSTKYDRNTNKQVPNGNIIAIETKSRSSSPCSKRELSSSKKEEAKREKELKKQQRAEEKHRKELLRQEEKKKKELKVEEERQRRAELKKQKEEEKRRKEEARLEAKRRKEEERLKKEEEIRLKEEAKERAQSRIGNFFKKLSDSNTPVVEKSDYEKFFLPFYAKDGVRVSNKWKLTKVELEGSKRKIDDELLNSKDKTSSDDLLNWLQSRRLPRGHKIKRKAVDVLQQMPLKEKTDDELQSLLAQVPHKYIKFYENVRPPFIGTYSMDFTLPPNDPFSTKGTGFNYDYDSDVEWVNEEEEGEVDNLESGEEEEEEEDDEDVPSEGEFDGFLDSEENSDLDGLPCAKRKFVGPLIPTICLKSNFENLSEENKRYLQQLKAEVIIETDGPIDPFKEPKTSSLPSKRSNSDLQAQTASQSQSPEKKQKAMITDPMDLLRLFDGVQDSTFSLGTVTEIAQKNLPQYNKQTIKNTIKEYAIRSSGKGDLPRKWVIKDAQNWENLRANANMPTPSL
Sequence of Cac1 (in CAF-1);GST-Cac2;Cac3 (budding yeast (Q04199 1-438, chain 2 of 3): as the sequence (Q04199 1-438) above
Sequence of Cac1 (in CAF-1);GST-Cac2;Cac3 (budding yeast (P13712 whole entry, chain 3 of 3): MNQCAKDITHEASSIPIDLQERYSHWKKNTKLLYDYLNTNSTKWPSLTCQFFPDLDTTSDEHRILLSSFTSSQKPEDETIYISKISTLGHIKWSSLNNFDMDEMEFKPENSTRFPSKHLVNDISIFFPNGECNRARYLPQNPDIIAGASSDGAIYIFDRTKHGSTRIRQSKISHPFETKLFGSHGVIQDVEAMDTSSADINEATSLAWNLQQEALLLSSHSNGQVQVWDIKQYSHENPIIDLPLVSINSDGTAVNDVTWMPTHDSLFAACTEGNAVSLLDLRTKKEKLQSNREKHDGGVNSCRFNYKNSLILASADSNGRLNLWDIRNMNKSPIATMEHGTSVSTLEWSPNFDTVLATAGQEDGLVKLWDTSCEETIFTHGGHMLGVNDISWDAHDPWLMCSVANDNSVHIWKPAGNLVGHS
Sequence of Cac1C K553E (Q12495 520-606 K553E): as the sequence (Q12495 520-606) above, with K34E counted along it

B1: 58 bp (dsDNA)
DNA 1: ATACATTTTATGACTGGAAACTTTTTTGTACAACACTCCAATAAACATTTTGATTTTA
DNA 2: TAAAATCAAAATGTTTATTGGAGTGTTGTACAAAAAAGTTTCCAGTCATAAAATGTAT
- binding result (Mmp150C 4KE): no binding
- binding result (Mmp150C): binds
- binding result (Hsp150C): binds
- binding result (Cac1C K577E): binds
- binding result (Cac1C K583E): binds
- binding result (Cac1C K553E): binds
- binding result (Cac1C (C-terminal WHD) [1]): binds

B2: 58 bp biotinylated (dsDNA)
DNA 1: ATACATTTTATGACTGGAAACTTTTTTGTACAACACTCCAATAAACATTTTGATTTTA
DNA 2: TAAAATCAAAATGTTTATTGGAGTGTTGTACAAAAAAGTTTCCAGTCATAAAATGTAT
modifications: biotin on one strand
- binding result (GST-Cac2): no binding
- binding result [2]: binds
- binding result (Cac1C (C-terminal WHD) [3]): binds

B3: AT-rich (dsDNA)
DNA 1: ATAATCGATATT
DNA 2: AATATCGATTAT
- binding result (Cac1C (C-terminal WHD) [4]): binds

B4: GC-rich (dsDNA)
DNA 1: ATCGCCCGCGCA
DNA 2: TGCGCGGGCGAT
- binding result (Cac1C (C-terminal WHD) [5]): binds

B5: ssDNA (ssDNA)
DNA: CAACAAAACCCCAACCCCAAACCACACC
- binding result (Cac1C (C-terminal WHD) [6]): binds
